This note sets out measurements from the supplement of paper PMC10567573.

This series is described as follows: protein stability index of a GFP-peptide fusion (GPS, HEK-293T) (PSI 1-6); higher = more stable. Conditions: c terminus: a fixed tail appended.

± gives the standard deviation.
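Also: 24-mer peptide tiles fused after GFP, lentivirally expressed, FACS-sorted into six equal bins by GFP/DsRed ratio, decoded by Illumina sequencing, PSI is the read-weighted mean bin number.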

As to VLLKKDVDAAYANKVELQAKVESM [KRT71], the protein stability index runs as follows: (treatment: DMSO) 3.63 ± 0.36; (treatment: MLN4924 1 uM, 8 h) 3.65 ± 0.36.
In the case of VLSLLSLEPAQRPPLSHIMAQPLC [NEK8], the protein stability index is, setting by setting: (treatment: DMSO) 2.17 ± 0.15; (treatment: MLN4924 1 uM, 8 h) 2.3 ± 0.099.
For VNAVLTQIDQIKRHSNVVILTTSN [TRIP13], in that order: 1.92 ± 0.46 and 1.95 ± 0.24.
For the sequence VPQPARMPYISDKHPRQTLEVINL [KLHL20], the protein stability index reads like this: (treatment: DMSO) 2.88 ± 0.2; (treatment: MLN4924 1 uM, 8 h) 3.2 ± 0.31.
For VQYLQHLGTENLHLIFSYSVWVLR [VPS39], in that order: 3.23 ± 0.39 and 2.96 ± 0.41.
Regarding VRGLYDFYLPREELWIYNMETGRW [KLHDC2], the protein stability index reads like this: (treatment: DMSO) 2.57 ± 0.39; (treatment: MLN4924 1 uM, 8 h) 2.24 ± 0.48.
As for VRLQSIHTMRKISNNITLREDQLD [INTS4], the protein stability index came out at 3.2 ± 0.055 (treatment: DMSO) and 3.3 ± 0.36 (treatment: MLN4924 1 uM, 8 h).
For VRSGAWHFSFNVKFYPPDPAQLSE [EPB41L3], in that order: 1.98 ± 0.61 and 2.53 ± 0.18.
On to VRSIQPEEKERIGQFVFARDAKAA [AASDHPPT], for which the protein stability index by setting is: (treatment: DMSO) 4.13 ± 0.31; (treatment: MLN4924 1 uM, 8 h) 4.39 ± 0.27.
For VRTTRGKRKRVDVEESEASSSVSI [LMNB1] the same measures were 5.13 ± 0.17 and 5.09 ± 0.44.
For VSRGGHGQQDLFRVLKAYTLYRPE [TBC1D10A], in that order: 2.06 ± 0.17 and 2.12 ± 0.36.
For VSSLISEKTNGATPLLMAARYGHL [FEM1C] the same measures were 2.28 ± 0.17 and 2.52 ± 0.28.
Turning to VSSVTQVEVDENAYRCGSGMQMAE [NET1], the protein stability index amounted to 4.2 ± 0.3 (treatment: DMSO) and 4.42 ± 0.11 (treatment: MLN4924 1 uM, 8 h).
For VTASPPTDLIWKNQNSWGTGEDVK [LMNB1], in that order: 4.36 ± 0.26 and 4.37 ± 0.24.
For the sequence VVCQPNEFIMPDSAVVGDVLVLTK [SEPHS2], the protein stability index is 2.35 ± 0.19 (treatment: DMSO) and 2.56 ± 0.36 (treatment: MLN4924 1 uM, 8 h).
For VVCVLLNLAGFILGCQGAQFVSSV [FAM189A2] the same measures were 3.35 ± 0.99 and 2.21 ± 0.42.
For VVEATHMCMVMRGVQKMNSKTVTS [GCH1] the same measures were 2.82 ± 0.31 and 3 ± 0.45.
As to VVPARLKRASAPTFDNDYSLSELL [RIPK4], the protein stability index runs as follows: (treatment: DMSO) 2.69 ± 0.17; (treatment: MLN4924 1 uM, 8 h) 2.8 ± 0.42.
For VVRICCIRSFGHFIARLQGSILQF [SMG5] the same measures were 2.57 ± 0.37 and 2.66 ± 0.57.
WCDGCKNHIGMGVRYNAEKKKVGN [YJU2B]: the protein stability index (treatment: DMSO) turned out to be 3.67 ± 0.34 and the protein stability index (treatment: MLN4924 1 uM, 8 h) turned out to be 3.65 ± 0.32.
For WDPHNGDILMEFGHLFPPPTPIFA [WSB1] the same measures were 2.38 ± 0.31 and 2.21 ± 0.27.
For WLSDWVTSYKVMVSNDSHTWVTVK [CPXM2] the same measures were 2.67 ± 1.5 and 2.56 ± 0.2.
For WMIEEKATITSRGSSLSGSLCSLL [LURAP1L] the same measures were 2.28 ± 0.17 and 2.47 ± 0.2.
For WMKHNVADSQITTIGNLVPQKTYS [PTPRD], the protein stability index runs as follows: (treatment: DMSO) 3.29 ± 0.55; (treatment: MLN4924 1 uM, 8 h) 3.17 ± 0.29.
For WQRGLNTPEDSDPDHFDTAILFTR [ADAMTS4] the same measures were 3.54 ± 0.25 and 3.5 ± 0.46.
For WQRQMDQPQDRNQALGTHRPVNKL [RASAL3], in that order: 4.39 ± 0.35 and 4.49 ± 0.14.
For WWNHMHFQHHAKPNCFRKDPDINM [FADS1] the same measures were 2.17 ± 0.42 and 2.26 ± 0.49.
For YCFCGWIVLGPYHVKFRSLSMVSE [MCOLN1], the protein stability index was 2.85 ± 1.1 (treatment: DMSO) and 3.1 ± 1.3 (treatment: MLN4924 1 uM, 8 h).
For YCKPTRLDLLLDMPPVSYDVQLLH [SPSB1], in that order: 2.2 ± 0.23 and 2.14 ± 0.33.
The sequence YDVAMNRAKDLVELDPEVEGTKPS [GOLPH3L] displayed a protein stability index (treatment: DMSO) of 5.54 ± 0.2 and a protein stability index (treatment: MLN4924 1 uM, 8 h) of 5.603 ± 0.052.
With YDVKYLMKSCKNLKGGLQEVAEQL [CNOT7], the protein stability index reads like this: (treatment: DMSO) 2.61 ± 0.43; (treatment: MLN4924 1 uM, 8 h) 2.98 ± 0.33.
For YECGVCAKKFMWRDSFMRHRGHCE [ZBTB22], in that order: 5 ± 0.16 and 4.99 ± 0.17.
For YEKTPFDQLAFIEELFSLMVVNRL [EID1], in that order: 2.68 ± 0.36 and 3.01 ± 0.43.
For YFSLYCLHQETQLIHVYLPLTSHI [SNX8] the same measures were 2.95 ± 0.35 and 2.78 ± 0.32.
YFYDPIERDIEIGFLPWLMNEVEK [RSPH3]: the protein stability index is, setting by setting: (treatment: DMSO) 2.04 ± 0.74; (treatment: MLN4924 1 uM, 8 h) 2.42 ± 0.25.
For YGHELLINTLITSGADTAKCGIHS [ANKRD44], in that order: 2.27 ± 0.38 and 1.99 ± 0.2.
